The text below walks through data of IntAct's records for PubMed 21804599.

To fix the notation:
B1: "Na(+)/H(+) exchange regulatory cofactor NHE-RF1" (Homo sapiens), O14745 (parent)
chain: MSADAAAGAPLPRLCCLEKGPNGYGFHLHGEKGKLGQYIRLVEPGSPAEKAGLLAGDRLVEVNGENVEKETHQQVVSRIRAALNAVRLLVVDPETDEQLQKLGVQVREELLRAQEAPGQAEPPAAAEVQGAGNENEPREADKSHPEQRELRPRLCTMKKGPSGYGFNLHSDKSKPGQFIRSVDPDSPAEASGLRAQDRIVEVNGVCMEGKQHGDVVSAIRAGGDETKLLVVDRETDEFFKKCRVIPSQEHLNGPLPVPFTNGEIQKENSREALAEAALESPRPALVRSASSDTSEELNSQDSPPKQDSTAPSSTSSSDPILDFNISLAMAKERAHQKRSSKRAPQMDWSKKNELFSNL
partner: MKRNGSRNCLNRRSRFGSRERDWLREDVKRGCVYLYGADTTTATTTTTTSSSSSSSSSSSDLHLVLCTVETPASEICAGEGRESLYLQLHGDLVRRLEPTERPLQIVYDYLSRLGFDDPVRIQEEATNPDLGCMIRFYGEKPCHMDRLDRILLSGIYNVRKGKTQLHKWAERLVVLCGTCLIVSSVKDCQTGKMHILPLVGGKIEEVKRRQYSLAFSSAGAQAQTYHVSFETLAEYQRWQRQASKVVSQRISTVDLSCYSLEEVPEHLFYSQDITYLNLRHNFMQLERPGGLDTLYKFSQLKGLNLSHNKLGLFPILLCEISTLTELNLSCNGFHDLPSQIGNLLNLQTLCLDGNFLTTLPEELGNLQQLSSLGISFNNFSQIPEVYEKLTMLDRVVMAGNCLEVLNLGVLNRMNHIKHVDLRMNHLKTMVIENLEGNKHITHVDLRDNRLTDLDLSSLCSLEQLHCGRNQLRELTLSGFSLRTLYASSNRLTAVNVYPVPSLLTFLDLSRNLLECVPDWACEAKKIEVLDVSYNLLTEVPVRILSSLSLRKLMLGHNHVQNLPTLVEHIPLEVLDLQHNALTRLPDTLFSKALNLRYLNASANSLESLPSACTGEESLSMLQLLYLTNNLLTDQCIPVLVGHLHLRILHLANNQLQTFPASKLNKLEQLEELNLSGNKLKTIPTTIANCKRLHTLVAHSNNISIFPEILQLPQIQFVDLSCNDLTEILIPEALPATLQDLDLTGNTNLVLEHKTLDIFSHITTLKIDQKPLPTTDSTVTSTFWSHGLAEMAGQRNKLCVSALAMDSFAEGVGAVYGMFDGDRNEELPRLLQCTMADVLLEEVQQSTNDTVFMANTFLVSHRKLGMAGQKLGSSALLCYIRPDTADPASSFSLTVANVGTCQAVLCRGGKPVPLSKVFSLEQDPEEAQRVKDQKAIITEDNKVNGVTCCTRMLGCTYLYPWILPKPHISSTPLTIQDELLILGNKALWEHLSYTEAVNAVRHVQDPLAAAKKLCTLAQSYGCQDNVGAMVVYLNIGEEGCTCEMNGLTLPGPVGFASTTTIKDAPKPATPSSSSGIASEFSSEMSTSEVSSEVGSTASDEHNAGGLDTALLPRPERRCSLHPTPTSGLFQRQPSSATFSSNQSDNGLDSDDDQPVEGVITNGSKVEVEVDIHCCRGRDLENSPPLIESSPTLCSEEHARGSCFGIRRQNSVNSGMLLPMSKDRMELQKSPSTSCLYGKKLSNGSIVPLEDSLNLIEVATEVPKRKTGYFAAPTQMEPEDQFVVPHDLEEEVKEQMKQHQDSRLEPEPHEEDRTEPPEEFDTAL
B2: "Na(+)/H(+) exchange regulatory cofactor NHE-RF1" (Homo sapiens), O14745 (parent)
chain: B1 chain
partner: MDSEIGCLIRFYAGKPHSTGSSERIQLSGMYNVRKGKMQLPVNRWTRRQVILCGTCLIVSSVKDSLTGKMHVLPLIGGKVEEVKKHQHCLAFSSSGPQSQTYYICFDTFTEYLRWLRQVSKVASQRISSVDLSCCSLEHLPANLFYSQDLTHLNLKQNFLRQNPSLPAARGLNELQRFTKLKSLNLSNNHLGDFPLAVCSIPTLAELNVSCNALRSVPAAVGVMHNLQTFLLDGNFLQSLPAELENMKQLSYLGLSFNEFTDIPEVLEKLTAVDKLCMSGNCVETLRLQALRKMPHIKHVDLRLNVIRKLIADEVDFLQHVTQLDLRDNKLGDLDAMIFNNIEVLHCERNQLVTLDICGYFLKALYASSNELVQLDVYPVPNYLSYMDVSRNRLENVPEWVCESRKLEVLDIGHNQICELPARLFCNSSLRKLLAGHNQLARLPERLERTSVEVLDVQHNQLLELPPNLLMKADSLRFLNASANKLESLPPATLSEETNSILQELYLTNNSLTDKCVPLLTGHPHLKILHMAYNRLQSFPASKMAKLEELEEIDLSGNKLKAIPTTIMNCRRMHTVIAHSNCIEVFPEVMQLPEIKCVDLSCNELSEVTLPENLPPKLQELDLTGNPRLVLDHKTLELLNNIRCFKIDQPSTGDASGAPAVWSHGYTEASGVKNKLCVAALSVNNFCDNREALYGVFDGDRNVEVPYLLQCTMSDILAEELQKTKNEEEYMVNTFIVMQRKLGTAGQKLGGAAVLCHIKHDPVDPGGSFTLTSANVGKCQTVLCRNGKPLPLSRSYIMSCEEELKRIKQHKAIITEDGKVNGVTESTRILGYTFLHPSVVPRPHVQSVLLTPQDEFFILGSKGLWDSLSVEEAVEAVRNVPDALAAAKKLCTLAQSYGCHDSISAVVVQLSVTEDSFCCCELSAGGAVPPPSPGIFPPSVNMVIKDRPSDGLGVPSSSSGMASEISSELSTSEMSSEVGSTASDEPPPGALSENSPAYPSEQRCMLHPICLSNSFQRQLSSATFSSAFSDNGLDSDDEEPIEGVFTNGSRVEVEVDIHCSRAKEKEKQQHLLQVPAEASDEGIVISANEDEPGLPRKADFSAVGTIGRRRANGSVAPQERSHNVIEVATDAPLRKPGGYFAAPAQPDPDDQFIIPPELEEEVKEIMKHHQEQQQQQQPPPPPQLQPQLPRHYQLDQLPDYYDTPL

In the first test the parent is B1. To be noted: with phlp2_human PHLPP2, Q6ZVD8.
Regarding MSADAAAGAPLPRLCCLEKGPNGYGFHLHGEKGKLGRYIRLVEPGSPAEKAGLLAGDRLVEVNGENVEKETHQQVVSRIRAALNAVRLLVVDPETDEQLQKLGVQVREELLRAQEAPGQAEPPAAAEVQGAGNENEPREADKSHPEQRELRPRLCTMKKGPSGYGFNLHSDKSKPGQFIRSVDPDSPAEASGLRAQDRIVEVNGVCMEGKQHGDVVSAIRAGGDETKLLVVDRETDEFFKKCRVIPSQEHLNGPLPVPFTNGEIQKENSREALAEAALESPRPALVRSASSDTSEELNSQDSPPKQDSTAPSSTSSSDPILDFNISLAMAKERAHQKRSSKRAPQMDWSKKNELFSNL [Q37R], the “effect of a mutation on the interaction” value is reported as “disrupting interaction”.

Variants of B2 are the subject of another test. To be noted: with PHLPP1, O60346-2.
On to MSADAAAGAPLPRLCCLEKGPNGYGFHLHGEKGKLGRYIRLVEPGSPAEKAGLLAGDRLVEVNGENVEKETHQQVVSRIRAALNAVRLLVVDPETDEQLQKLGVQVREELLRAQEAPGQAEPPAAAEVQGAGNENEPREADKSHPEQRELRPRLCTMKKGPSGYGFNLHSDKSKPGQFIRSVDPDSPAEASGLRAQDRIVEVNGVCMEGKQHGDVVSAIRAGGDETKLLVVDRETDEFFKKCRVIPSQEHLNGPLPVPFTNGEIQKENSREALAEAALESPRPALVRSASSDTSEELNSQDSPPKQDSTAPSSTSSSDPILDFNISLAMAKERAHQKRSSKRAPQMDWSKKNELFSNL [Q37R], for which the “effect of a mutation on the interaction” value was “disrupting interaction”.
